Data published in patent US20240124575A1 (SIMCERE ZAIMING PHARMACEUTICAL, published 2024).
Read-outs that look alike come from different tables or passages of the source.

B1: C33B904 hIgG1 (antibody, V domains shown)
VH: EVQLVESGGGLVQPGRSLRLSCAASGFTFDDYAMHWVRQAPGKGLEWVSGIGWSGGSIVYADSVKGRFTISRDNAKNSLYLQMNSLRAEDTALYYCAKDSPYGDFFDYWGQGTLVTVSS
VL: DIVMTQSPDSLAVSLGERATINCKSSQTVFYSSNNKNYLAWYQQKPGQPPKLLISWASTRKSGVPDRFSGSGSGTDFTLTVSSLQAEDVAVYYCQHYYSTPYTFGQGTKLEIKR
notes: intact human IgG1; variable regions from US20190382481A1; also called C33B3904; C331B904
B2: C33B904 (antibody, human IgG1, kappa, V domains shown)
VH: B1 VH
VL: B1 VL
notes: control antibody, intact human IgG1 form; variable regions from US20190382481A1; also called C33B904 hIgG1; C331B904

Key:
monkey CD33-His protein = target: T1, monkey CD33-His protein (monkey); assay: ELISA on coated monkey CD33-his
T1 construct: also called monkey CD33 protein

human CD33-V-his = target: T2, human CD33-V-his (human, UniProt P20138 18-144); assay: ELISA on coated human CD33-V-his
T2 construct: expressed in HEK293E; also called hCD33-V-his; human CD33 protein V-domain; not shown: His tag

human CD33-C2-his [1] = target: T3, human CD33-C2-his (human, UniProt P20138 136-260); assay: ELISA on coated human CD33-C2-his
T3 construct: expressed in HEK293E; also called hCD33-C2-his; human CD33 protein C2-domain; not shown: His tag
Source text: (§1) Plates were coated with human CD33-V-his (membrane distal end) and human CD33-C2-his (membrane proximal end), respectively, according to the ELISA method in Example 8. The VHH humanized antibodies were classified based on the membrane distal end and the membrane proximal end, as shown in FIGS. 20A-20J and Table 44, which allowed the classification of the VHH humanized antibodies into the following classes: […]

human CD33-C2-his [2] = target: T3, human CD33-C2-his; assay: ELISA on coated human CD33-C2-his; remark: listed apart in the source
Source text: as §1

[3] = target: T4, human CD33-His (extracellular domain Asp 18-His 259) (human, UniProt P20138 18-259); assay: competitive ELISA vs coated C33B904 3ug/mL; soluble 25ug/ml
T4 construct: range 18-259; bought protein; also called hCD33-his; human CD33 protein; not shown: His tag

[4] = target: T4, human CD33-His (extracellular domain …); assay: competitive ELISA vs coated S006-NB147-220 3ug/mL; soluble 25ug/ml
human CD33-his protein [5] = target: T5, human CD33-his protein (human, UniProt P20138 18-259); assay: competition ELISA, coated human CD33-his, vs Biotin-C33B904 at EC80; antibody 7.81 nM
T5 construct: range 18-259; bought protein; also called hCD33-his; recombinant human CD33-his; not shown: His tag
Procedure: The plate was sealed with a plastic film and incubated at 4° C. overnight, washed twice with PBS the next day, and a blocking solution [PBS+2% (w/w) BSA] was added for blocking at room temperature for 2 h. The blocking solution was discarded, and VHH-Fc antibody or negative control antibody serially diluted from 100 nM was added at 50 μL/well. After incubation at 37° C. for 2 h, the plate was washed 3 times with PBS. A secondary antibody labeled with HRP (horseradish peroxidase) (purchased from Sigma, Cat. No. A0170) was added. After incubation for 1 h at 37° C., the plate was washed 5 times with PBS. A TMB substrate was added at 50 μL/well. After incubation at room temperature for 10 min, a stop solution (1.0 N HCl) was added at 50 μL/well. The OD450 nm values were read on an ELISA plate reader (Multimode Plate Reader, EnSight, purchased from Perkin Elmer). The assay results for the binding of the VHH-Fc to hCD33-his by ELISA are shown in FIGS. 7A and 7B and Tables 11 and 12. […] The IgG control was hIgG1, and the data in the table are OD450 nm values.
ELISA plates were coated with 2 μg/mL human CD33-his protein according to the method in Example 5.1; the Biotin-C331B904 antibody was subjected to a gradient dilution from 15 μg/mL, and EC80 values (0.18 μg/mL) were calculated. […] OD_{450 nm} values were read using an ELISA plate reader (Insight, purchased from PerkinElmer). […]

human CD33-his protein [6] = target: T5, human CD33-his protein; assay: competition ELISA, coated human CD33-his, vs Biotin-C33B904 at EC80; antibody 31.25 nM
Procedure: ELISA plates were coated with 2 μg/mL human CD33-his protein according to the method in Example 5.1; the Biotin-C331B904 antibody was subjected to a gradient dilution from 15 μg/mL, and EC80 values (0.18 μg/mL) were calculated. ELISA plates were coated with 2 μg/mL human CD33-his protein; starting from 40 μg/mL, the VHH antibodies to be tested were diluted in a 1:2 dilution ratio to obtain seven concentrations and added to the ELISA plates, and then Biotin-C331904 antibodies with the EC80 concentrations were added for incubation for 2 h. The plates were washed 5 times with PBS and then […] (purchased from Sigma, Cat. No. S2438) were added for incubation for 1 h, and the plates were washed 5 times. A TMB substrate was added at 50 μL/well and incubated at room temperature for 10 min, then a stop solution (1.0 M HCl) was added at 50 μL/well. OD_{450 nm} values were read using an ELISA plate reader (Insight, purchased from PerkinElmer). Then, analysis was performed by software (GraphPad Prism8), and data were fitted for curve plotting. The results are shown in FIGS. 13A-13B and Tables 28 and 29.

T4 sequence (P20138 18-259 limits assumed): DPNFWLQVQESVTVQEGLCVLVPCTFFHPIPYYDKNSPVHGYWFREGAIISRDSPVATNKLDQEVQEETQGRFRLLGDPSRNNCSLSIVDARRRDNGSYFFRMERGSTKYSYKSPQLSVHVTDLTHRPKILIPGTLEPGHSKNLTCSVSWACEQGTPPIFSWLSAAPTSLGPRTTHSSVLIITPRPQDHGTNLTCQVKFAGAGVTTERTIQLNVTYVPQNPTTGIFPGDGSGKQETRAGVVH
T5 sequence (P20138 18-259 limits assumed): as above
T3 sequence (P20138 other isoform, or with tags, fused parts or gaps limits assumed): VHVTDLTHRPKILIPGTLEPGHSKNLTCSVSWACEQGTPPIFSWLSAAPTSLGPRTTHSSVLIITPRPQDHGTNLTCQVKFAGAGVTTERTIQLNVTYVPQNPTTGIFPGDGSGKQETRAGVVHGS
T2 sequence (P20138 other isoform, or with tags, fused parts or gaps limits assumed): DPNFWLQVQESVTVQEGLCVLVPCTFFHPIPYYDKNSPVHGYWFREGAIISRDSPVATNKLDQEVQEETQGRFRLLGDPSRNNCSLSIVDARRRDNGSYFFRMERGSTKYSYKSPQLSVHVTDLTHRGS

Binder | EC50 (read off the curve) (monkey CD33-His protein) | binding result (human CD33-V-his) | EC50 (read off the curve) (human CD33-C2-his [1]) | EC50 (read off the curve) (human CD33-C2-his [2]) | inhibition rate [3] | inhibition rate [4] | OD450 (Biotin-C33B904 signal) (human CD33-his protein [5]) | OD450 (Biotin-C33B904 signal) (human CD33-his protein [6])
B1 | ~0.2 nM | no binding (tested: 100 nM) | ~0.1 nM | ~0.2 nM | 86% | 98% |  | 
B2 |  |  |  |  |  |  | 1.72 | 0.66
